This is an account of results in article PMC10458328, “The “life-span” of lytic polysaccharide monooxygenases (LPMOs) correlates to the number of turnovers in the reductant peroxidase reaction” (The Journal of Biological Chemistry, 2023).

Substrate in series [1]: O=C1O[C@H]([C@@H](O)CO)C(O)=C1O
The series can be described thus: purified protein. The following applies: H2O2 co-substrate (true Km from kcat app vs [AscA]), 50 mM sodium acetate pH 5.0, 25 °C, no polysaccharide, ping-pong. It counts as biochemical, Neurospora crassa.

Substrate in series [2]: O=C1O[C@H]([C@@H](O)CO)C(O)=C1O
Briefly: purified protein. It counts as biochemical, Streptomyces coelicolor. The following applies: H2O2 co-substrate (true Km from kcat app vs [AscA]), 50 mM sodium acetate pH 5.0, 25 °C, no polysaccharide, ping-pong.

B1: NcAA9C (Neurospora crassa OR74A) (protein)
chain: HTIFQKVSVNGADQGQLKGIRAPANNNPVTDVMSSDIICNAVTMKDSNVLTVPAGAKVGHFWGHEIGGAAGPNDADNPIAASHKGPIMVYLAKVDNAATTGTSGLKWFKVAEAGLSNGKWAVDDLIANNGWSYFDMPTCIAPGQYLMRAELIALHNAGSQAGAQFYIGCAQINVTGGGSASPSNTVSFPGAYSASDPGILINIYGGSGKTDNGGKPYQIPGPALFTCPAGGSGGSSPAPATTASTPKPTSASAPKPVSTTASTPKPTNGSGSGTGAAHSTKCGGSKPAATTKASNPQPTNGGNSAVRAAALYGQCGGKGWTGPTSCASGTCKFSNDWYSQCLP
notes: N-terminal His not methylated; copper-saturated; eps280 46,910
By Km is commonly meant the concentration of substrate that gives half-maximal velocity. As a reminder, the kcat is the number of substrate molecules converted per active site and unit of time at saturation. A word on the kcat/Km: it is the turnover number divided by the Michaelis constant. B1: in the series “purified protein [1]”, the Michaelis constant (Km) was 145 ± 4 µM, the turnover number (kcat) turned out to be 5.3 ± 0.1 s⁻¹ and the kcat/Km was found to be 36000 ± 1000 M⁻¹ s⁻¹.

B2: ScAA10C (Streptomyces coelicolor A3(2)) (protein)
chain: HGVAMMPGSRTYLCQLDAKTGTGALDPTNPACQAALDQSGATALYNWFAVLDSNAGGRGAGYVPDGTLCSAGDRSPYDFSAYNAARSDWPRTHLTSGATIPVEYSNWAAHPGDFRVYLTKPGWSPTSELGWDDLELIQTVTNPPQQGSPGTDGGHYYWDLALPSGRSGDALIFMQWVRSDSQENFFSCSDVVFDGGNGEVTGIRGSGSTPDPDPTPTPTDPTTPPTHTGSCMAVYSVENSWSGGFQGSVEVMNHGTEPLNGWAVQWQPGGGTTLGGVWNGSLTSGSDGTVTVRNVDHNRVVPPDGSVTFGFTATSTGNDFPVDSIGCVAP
notes: copper-saturated; eps280 75,775; called ScAA10A by slip in places
In the case of B2, in the series “purified protein [2]”, the Km turned out to be 25 ± 2 µM, the kcat was found to be 0.64 ± 0.02 s⁻¹ and the kcat/Km is 21000 ± 2000 M⁻¹ s⁻¹.
